Patent publication US6083711, “Proteases compositions capable of binding to said site, and methods of use thereof” (SmithKline Beecham Corporation, dated 2000)

Target: the molecule itself
Assay: crystal structure, homodimer

Protein	binding result
unliganded HSV-2 protease (enzyme) MASAEMRERLEAPLPDRAVPIYVAGFLALYDSGDPGELALDPDTVRAALPPENPLPINVNHRARCEVGRVLAVVNDPRGPFFVGLIACVQLERVLETAASAAIFERRGPALSREERLLYLITNYLPSVSLSTKRRGDEVPPDRTLFAHVALCAIGRRLGTIVTYDTSLDAAIAPFRHLDPATREGVRREAAEAELALAGRTWAPGVEALTHTLLSTAVNNMMLRDRWSLVAERRRQAGIAGHTYLQA	binds
HSV-1 protease (enzyme) MAADAPGDRMEEPLPDRAVPIYVAGFLALYDSGDSGELALDPDTVRAALPPDNPLPINVNHRAGCEVGRVLAVVDDPRGPFFVGLIACVQLERVLETAASAAIFERRGPPLSREERLLYLITNYLPSVSLATKRLGGEAHPDRTLFAHVALCAIGRRLGTIVTYDTGLDAAIAPFRHLSPASREGARRLAAEAELALSGRTWAPGVEALTHTLLSTAVNNMMLRDRWSLVAERRRQAGIAGHTYLQA	binds
CMV A143V protease (enzyme) MTMDEQQSQAVAPVYVGGFLARYDQSPDEAELLLPRDVVEHWLHAQGQGQPSLSVALPLNINHDDTAVVGHVAAMQSVRDGLFCLGCVTSPRFLEIVRRASEKSELVSRGPVSPLQPDKVVEFLSGSYAGLSLSSRRCDDVEVATSLSGSETTPFKHVALCSVGRRRGTLAVYGRDPEWVTQRFPDLTAADRDGLRAQWQRCGSTAVDASGDPFRSDSYGLLGNSVDALYIRERLPKLRYDKQLVGVTERESYVKA	binds
protease from delta9 LQAS-12aa ext H6(C) VZV (enzyme) MEALYVAGLYALYSKDEGELNITPEIVRSALPPTSKIPINIDHRKDCVVGEVIAIIEDIRGPFFLGIVRCPQLHAVLFEAAHSNFFGNRDSVLSPLERALYLVTNYLPSVSLSSKRLSPNEIPDGNFFTHVALCVVGRRVGTVVNYDCTPESSIEPFRVLSMESKARLLSLVKDYAGLNKVWKVSEDKLAKVLLSTAVNNMLLRDRWDVVAKRRREAGIMGHVYLQA	binds
